Test results as given in PMC6072106.

Experiments:
Conditions in all cases: EMSA: 24 mM Tris/HCl pH 7.5, 50 mM KCl, 10 mM MgCl2, 1 mM CaCl2, 0.1 mM EDTA, 5% glycerol, 0.05 ug/ul BSA, 0.05 ug/ul salmon sperm DNA, 20 ul, 20 min room …
Fis [1] = biological target: T1, Fis (UniProt Q88DK4); experiment: DNase I footprinting
T1 sequence: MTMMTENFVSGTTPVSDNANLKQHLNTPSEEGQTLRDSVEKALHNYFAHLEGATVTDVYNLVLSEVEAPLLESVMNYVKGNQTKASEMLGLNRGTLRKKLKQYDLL

Fis [2] = biological target: T1, Fis; experiment: EMSA with LF2 competition
Fis [3] = biological target: T1, Fis; experiment: EMSA
Fis [4] = biological target: T1, Fis; experiment: competition

Row | Sequence | binding (Fis [1]) | binding (Fis [2]) | binding (Fis [3]) | binding (Fis [4])
1 | AGGATCCAATCGCCAGATGAACTTTACAAGGCGCAGAACAGCGAAATTCGAGCGCAGCAGTGGCACCGACCTTAATTATCATTACAGGGTTTGCAATTCGTTACCCGCTGCAAGAAACATAATTAACAAAACCGCGCGTAATGCCCGAATTTCAAGGCTCTCAGCCAGTTACGAACG (double strand) [Fis-nuo3-Fis-nuo4-mut] | binds more weakly | binds more weakly | – | –
2 | AGGATCCAATCGCCAGATGAACTTTACAAGGCGCAGAACAGCGAAATTCGAGCGCAGCAGTTCAAATGATATTAATTATCATTACAGGGTTTGCAATTCGTTACCCGCTGCAAGAAACATAAGTCAGCCAACCGCGCGTAATGCCCGAATTTCAAGGCTCTCAGCCAGTTACGAACG (double strand) [Fis-nuo3-mut-Fis-nuo4] | binds more weakly | binds more weakly | – | –
3 | AGGATCCAATCGCCAGATGAACTTTACAAGGCGCAGAACAGCGAAATTCGAGCGCAGCAGTTCAAATGATATTAATTATCATTACAGGGTTTGCAATTCGTTACCCGCTGCAAGAAACATAATTAACAAAACCGCGCGTAATGCCCGAATTTCAAGGCTCTCAGCCAGTTACGAACG (double strand) [nuoA promoter Fis-nuo3-Fis-nuo4 (170 bp)] | binds | – | binds | –
4 | CGTGGGGTTATGCCGAGATAAGGCAAAAATTAGGACATTCGTTCTGTAAATATATGATTTAAAAGGTTATTCGAGAGGCCGTGGCTTGCTGGTCATCCACCGTCTGAGCTCAGC (double strand) [RF1] | – | – | – | no binding
5 | GCGCGTAATGCCCGAATTTCAAGGCTCTCAGCCAGTTACGAACGTTTGTCCTACCTAATCCTACGAATAAATTTGCGACAGAAATTTTACTTGCACCAGGTTTACCCATAAAATCAGCGCGATTGATCCGGCTGCGACATTTGGTCACTG (double strand) [Fis-nuo1-Fis-nuo2-mut] | binds more weakly | binds more weakly | – | –
6 | GCGCGTAATGCCCGAATTTCAAGGCTCTCAGCCAGTTACGAACGTTTTTTGTACTTAATCCTACGAATAAATTTGCGACAGAAATTTTACTTGCACCAGGTTTACCCATAAAATCAGCGCGATTGATCCGGCTGCGACATTTGGTCACTG (double strand) [nuoA promoter Fis-nuo1-Fis-nuo2 (150 bp)] | binds | – | binds | –
7 | GCGCGTAATGCCCGAATTTCAAGGCTCTCAGCCAGTTACGAACGTTTTTTGTACTTAATCCTACGAATAAGGTTGCGAGTCGAATTTTACTTGCACCAGGTTTACCCATAAAATCAGCGCGATTGATCCGGCTGCGACATTTGGTCACTG (double strand) [Fis-nuo1-mut-Fis-nuo2] | binds more weakly | – | – | –
